Test results: US12178803B2, “CD47 blockade with PARP inhibition for disease treatment” (TRILLIUM THERAPEUTICS ULC, priority 2018, dated 2024)

Assay: Systemic toxicity by clinical parameter scoring in the xenograft study
Type: in vivo
Conditions: SIRPαFc added to niraparib and/or RT
Method: Niraparib (50 mg/kg) was administered 1 hour prior to RT, 5 times per week for 1 week. Mice were treated with whole abdomen radiotherapy (external beam radiation therapy) at a dose of 2 Gy for 2 fractions using an image-guided small animal irradiator (225 kVp, 13 mA). Treatment was initiated on day 7 following tumor inoculation. Treatment efficacy was assessed by bioluminescent imaging (BLI) and animal survival. Systemic toxicity was evaluated by clinical parameter scoring.

**Q.** For “SIRPαFc: CD47 blocking fusion protein: IgV domain of human SIRPα V2 fused to a human IgG Fc region; preferred SEQ ID NO:8”, which “additional toxicity when combined with PARPi (niraparib) and/or RT” value is on record?
**A.** The value was “without showing additional toxicity”.
